Columns and labels:
[1] = molecular target: T1, ParB (ORF23, pMF1.23 product), His-tagged (Myxococcus fulvus 124B02 plasmid pMF1, UniProt B0YR32 12-86); assay: EMSA; EMSA: 12 mM HEPES, 4 mM Tris-HCl pH 8.0, 60 mM KCl, 5 mM MgCl2, 0.1 mM EDTA, 1 ug poly(dI-dC), 2% glycerol, 12 pmol probe, 30 min 30 C; footprint: HEMG (50 mM EDTA as printed, 50 mM KCl, 12.5 mM HEPES pH 7.6, 6 mM MgCl2, 5% glycerol), 20 mM HEPES pH 7.6, 5 ug poly(dI-dC), 30 min 30 C; conditions: protein: recombinant; tags: N-terminal His6 (pET-15b); label: 3' biotin; blunt
T1 sequence: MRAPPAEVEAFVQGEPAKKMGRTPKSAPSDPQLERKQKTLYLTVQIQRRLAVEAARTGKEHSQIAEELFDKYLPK

[2] = molecular target: T1, ParB (ORF23, pMF1.23 product), …; assay: EMSA; unlabeled ItB competes; EMSA: 12 mM HEPES, 4 mM Tris-HCl pH 8.0, 60 mM KCl, 5 mM MgCl2, 0.1 mM EDTA, 1 ug poly(dI-dC), 2% glycerol, 12 pmol probe, 30 min 30 C; footprint: HEMG (50 mM EDTA as printed, 50 mM KCl, 12.5 mM HEPES pH 7.6, 6 mM MgCl2, 5% glycerol), 20 mM HEPES pH 7.6, 5 ug poly(dI-dC), 30 min 30 C; conditions: protein: recombinant; tags: N-terminal His6 (pET-15b); label: 3' biotin; blunt
[3] = molecular target: T2, ParC (ORF21, pMF1.21 product) (Myxococcus fulvus 124B02 plasmid pMF1, UniProt B0YR30 1-87); assay: EMSA; data not shown; EMSA: 12 mM HEPES, 4 mM Tris-HCl pH 8.0, 60 mM KCl, 5 mM MgCl2, 0.1 mM EDTA, 1 ug poly(dI-dC), 2% glycerol, 12 pmol probe, 30 min 30 C; footprint: HEMG (50 mM EDTA as printed, 50 mM KCl, 12.5 mM HEPES pH 7.6, 6 mM MgCl2, 5% glycerol), 20 mM HEPES pH 7.6, 5 ug poly(dI-dC), 30 min 30 C; conditions: protein: recombinant, tags: His6 (pET-15b), label: 3' biotin
T2 sequence: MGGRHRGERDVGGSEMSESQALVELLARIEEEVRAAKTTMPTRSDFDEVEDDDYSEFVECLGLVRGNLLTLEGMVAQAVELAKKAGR

[4] = molecular target: T1, ParB (ORF23, pMF1.23 product), …; assay: EMSA; up to 1000 ng protein; EMSA: 12 mM HEPES, 4 mM Tris-HCl pH 8.0, 60 mM KCl, 5 mM MgCl2, 0.1 mM EDTA, 1 ug poly(dI-dC), 2% glycerol, 12 pmol probe, 30 min 30 C; footprint: HEMG (50 mM EDTA as printed, 50 mM KCl, 12.5 mM HEPES pH 7.6, 6 mM MgCl2, 5% glycerol), 20 mM HEPES pH 7.6, 5 ug poly(dI-dC), 30 min 30 C; conditions: protein: recombinant; tags: N-terminal His6 (pET-15b); label: 3' biotin
[5] = molecular target: T3, ParB (ORF23, pMF1.23 product), His-tag free (Myxococcus fulvus 124B02 plasmid pMF1, UniProt B0YR32 12-86); assay: EMSA; similar affinity to His-tagged protein; EMSA: 12 mM HEPES, 4 mM Tris-HCl pH 8.0, 60 mM KCl, 5 mM MgCl2, 0.1 mM EDTA, 1 ug poly(dI-dC), 2% glycerol, 12 pmol probe, 30 min 30 C; footprint: HEMG (50 mM EDTA as printed, 50 mM KCl, 12.5 mM HEPES pH 7.6, 6 mM MgCl2, 5% glycerol), 20 mM HEPES pH 7.6, 5 ug poly(dI-dC), 30 min 30 C; conditions: protein: recombinant; tags: none; label: 3' biotin; blunt
T3 sequence: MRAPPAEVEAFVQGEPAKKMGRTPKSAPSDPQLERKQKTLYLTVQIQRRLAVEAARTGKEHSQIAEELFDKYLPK

[6] = molecular target: T1, ParB (ORF23, pMF1.23 product), …; assay: EMSA; poly(dI-dC), 5 mM MgCl2; unlabeled ItA competes; EMSA: 12 mM HEPES, 4 mM Tris-HCl pH 8.0, 60 mM KCl, 5 mM MgCl2, 0.1 mM EDTA, 1 ug poly(dI-dC), 2% glycerol, 12 pmol probe, 30 min 30 C; footprint: HEMG (50 mM EDTA as printed, 50 mM KCl, 12.5 mM HEPES pH 7.6, 6 mM MgCl2, 5% glycerol), 20 mM HEPES pH 7.6, 5 ug poly(dI-dC), 30 min 30 C; conditions: protein: recombinant; tags: N-terminal His6 (pET-15b); label: 3' biotin; blunt

B1: ItC (dsDNA)
DNA 1: AGACATCTGGAAGTCTGGATGTC
DNA 2: GACATCCAGACTTCCAGATGTCT
B1: binds [1].

B2: ItE (dsDNA)
DNA 1: AAGTGTCTAGATGTCTAGATGTCT
DNA 2: AGACATCTAGACATCTAGACACTT
B2: binds [1].

B3: ItB (dsDNA)
DNA 1: GTGATGTCTAGAGGTCTGGATGTCTAGATGTCTAGATGTCT
DNA 2: AGACATCTAGACATCTAGACATCCAGACCTCTAGACATCAC
B3: binds [2].

B4: ItD (dsDNA)
DNA 1: AGAAGTCCAGACATCTGGACATTCAGAAGTCTAGACATCTGGATGTCCAGATGGGG
DNA 2: CCCCATCTGGACATCCAGATGTCTAGACTTCTGAATGTCCAGATGTCTGGACTTCT
B4: binds [1].

B5: ItF (dsDNA)
DNA 1: AGAGGTCTAGGTGTCTGGAAGTCTGGAGGTCTGGATGTC
DNA 2: GACATCCAGACCTCCAGACTTCCAGACACCTAGACCTCT
B5: binds [1].

B6: non-iteron fragment (dsDNA)
DNA 1: CGGGCGTCACAGGGGGGAACGCGATGTTGGAGGGTCGGAAATGAGCGAGTCG
DNA 2: CGACTCGCTCATTTCCGACCCTCCAACATCGCGTTCCCCCCTGTGACGCCCG
B6: no binding [3]; no binding [4].

B7: ItA (dsDNA)
DNA 1: GGAAGTCTGGAAGTCTAGATGTCTAGATGTTTGAATGTTTGGAGTGGG
DNA 2: CCCACTCCAAACATTCAAACATCTAGACATCTAGACTTCCAGACTTCC
B7: no binding ([3]; blunt); binds [5]; binds [6].

Reference: PMC3235114, “Characterization of the Partitioning System of Myxococcus Plasmid pMF1”
